Experimental data taken from patent US20200239573A1 (CRESCENDO BIOLOGICS, published 2020).
Positions count from the first letter of the chain named.

B1: Humabody® 1.80 (VHH)
VHH: EVQLVESGGGLVKPGGSLRLSCAASGFTFSDSSMTWMRQAPGKGLEWVSYISSGGGVKFYADSVKGRFTISRDNAKNSLYLQMNSLRAEDTAVYYCAREAPLRLGESPHDAFDISGQGTMVTVSS
notes: human VH single domain antibody
B2: Humabody® 1.96 (VHH)
VHH: B1 VHH with S32T
notes: as for B1
B3: Humabody® 1.98 (VHH)
VHH: B1 VHH with S32K
notes: as for B1
B4: Humabody® 1.99 (VHH)
VHH: B1 VHH with S32R
notes: as for B1
B5: Humabody® 1.100 (VHH)
VHH: B1 VHH with S32L
notes: as for B1
B6: Humabody® 1.91 (VHH)
VHH: B1 VHH with S32Q
notes: as for B1
B7: Humabody® 1.95 (VHH)
VHH: B1 VHH with S32G
notes: as for B1
B8: Humabody® 1.93 (VHH)
VHH: B1 VHH with S32A
notes: as for B1
B9: Humabody® 1.97 (VHH)
VHH: B1 VHH with S32I
notes: as for B1
B10: Humabody® 1.90 (VHH)
VHH: B1 VHH with S32V
notes: as for B1
B11: Humabody® 1.4 (VHH)
VHH: QVQLVESGGGLVKPGGSLRLSCAASGFTFSDYYMIWMRQAPGKGLEWVSYISGGGTTKYYTDSVKGRFTISRDNAKNSLYLQMNSLRADDTAVYYCAREAPLRLGETPHDAFDIWGQGTMVTVSS
notes: as for B1
B12: Humabody® 1.9 (VHH)
VHH: B11 VHH with S30G, Y33T, I35T, G53T, T57I, N84D, T107S
notes: as for B1
B13: Humabody® 1.5 (VHH)
VHH: B11 VHH with Q1E, Y33T, I35T, G53T, T56N, T107S
notes: as for B1
B14: Humabody® 1.13 (VHH)
VHH: B11 VHH with Q1E, V5L, Y33T, I35T, G53T, T57I, T107S
notes: as for B1
B15: Humabody® 1.12 (VHH)
VHH: EVQLLESGGGVVKPGGSLRLSCAASGFTFSDYYMGWIRQAPGKGLEWISYISSSGSTIYYADSVKGRFTISRDNAKNSLYLQMNSLRAEDTAVYYCAREAPLRLGESPHDAFDIWGQGTMVTVSS
notes: as for B1
B16: Humabody® 1.15 (VHH)
VHH: B15 VHH with E1Q, L5V, V11L, Y32N, Y33S, G35S, I48V, S85T, R98K
notes: as for B1
B17: Humabody® 1.11 (VHH)
VHH: B15 VHH with V11L, Y33D, G35T, L45Q, I48V, S53R, S54G, I58K, S107T
notes: as for B1
B18: Humabody® 1.14 (VHH)
VHH: B11 VHH with Q1E, K13Q, G16R, Y33T, I35T, G53T, T57I, T107S
notes: as for B1

Each binder was assayed against T1, Strep tagged recombinant human PD-1 (human, UniProt Q15116 25-170, limits assumed) (assay: SPR Biacore T200, strep-tagged PD-1 amine-coupled, single cycle kinetics).
T1 construct: the whole entry is named; also called strep tagged human PD-1; not shown: Strep tag
T1 sequence (Q15116 25-170 limits assumed): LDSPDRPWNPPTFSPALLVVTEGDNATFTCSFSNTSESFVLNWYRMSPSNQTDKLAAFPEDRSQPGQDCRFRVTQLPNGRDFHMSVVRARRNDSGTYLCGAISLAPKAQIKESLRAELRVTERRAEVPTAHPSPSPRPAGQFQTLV
Procedure: Single cycle kinetics assays were used to study the interaction between human PD-1 with Humabody® on a Biacore T200 instrument (GE Healthcare). Strep tagged recombinant human PD-1 was amine coupled to one flow cell of a CM-5 chip to create a low density surface (14 RU) using standard Biacore reagents. For the reference flow cell, a blank immobilisation was carried out. A five-point, three-fold dilution series of each Humabody® was made with a top concentration of 25 nM. The binding kinetics were followed by flowing the Humabody® over the chip surface in HBS EP+ buffer at a flow rate of 30 μl/min. The contact time for each of the association steps was 180 seconds and the dissociation step was 3300 seconds. The data was fitted to a 1:1 binding model after double reference subtraction using the Biacore T200 Evaluation software.

Kd | koff | kon | Binder
0.0297 nM | 5.2e-05 s⁻¹ | 1.76e+06 M⁻¹ s⁻¹ | B1
0.08 nM | 0.00012 s⁻¹ | 1.52e+06 M⁻¹ s⁻¹ | B2

Each binder was assayed against T2, human PD-1 expressed on cells (CHO human PD-1 cells) (human, UniProt Q15116 21-288) (assay: FMAT epitope competition on CHO human PD-1 cells; competitor 1 nM 1.1-Strep).
T2 construct: also called CHO TREX human PD-1 cell line; CHO PD-1
T2 sequence (Q15116 21-288): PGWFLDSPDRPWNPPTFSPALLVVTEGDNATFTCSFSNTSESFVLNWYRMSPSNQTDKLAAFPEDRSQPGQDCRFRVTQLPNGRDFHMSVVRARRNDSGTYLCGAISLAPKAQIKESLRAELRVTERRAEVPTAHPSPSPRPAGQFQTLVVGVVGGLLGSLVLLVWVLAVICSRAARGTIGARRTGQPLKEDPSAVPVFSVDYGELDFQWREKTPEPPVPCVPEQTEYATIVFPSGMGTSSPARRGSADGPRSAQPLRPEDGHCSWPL
Procedure: (§1) For the epitope competition assay reagents were prepared in FMAT assay buffer. […] Plates were incubated for a minimum of 1.5 hours at room temperature then fluorescence measured in the FL2 (502 nm-537 nm) and FL5 (677-800 nm) channels on the Mirrorball plate reader (TTP) following excitation at 488 nm and 640 nm. Data was expressed as a % of the total binding control (i.e. % control) after subtraction of the background signal determined from the non-specific binding control wells.

IC50 | Binder
1.6 nM | B2
1.1 nM | B3
1.4 nM | B4
1.5 nM | B5
1.4 nM | B6
2 nM | B7
1.5 nM | B8
1.7 nM | B9
1.6 nM | B10

The binders below were run against T3, recombinant human PD-1 Fc chimera (human, UniProt Q15116 25-167) (assay: HTRF inhibition; biotinylated PD-L2-Fc vs Eu-cryptate PD-1-Fc).
T3 construct: Bought protein; also called human PD-1-huFc; huPD-1-Fc; not shown: human Fc
T3 sequence (Q15116 25-167 limits assumed, change not shown): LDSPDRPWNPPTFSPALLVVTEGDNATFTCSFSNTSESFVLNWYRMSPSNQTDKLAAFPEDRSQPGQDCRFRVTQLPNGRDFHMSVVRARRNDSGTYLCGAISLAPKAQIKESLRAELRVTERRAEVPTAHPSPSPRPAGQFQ

IC50 | Binder
14 nM | B11
7.5 nM | B12
22 nM | B13
10 nM | B14

What follows are binders tested against T2, human PD-1 expressed on cells (CHO …) (assay: cell-based or functional assay).

Reporter Assay EC50 | Binder
6.5 nM | B3
4.2 nM | B4

Each binder was assayed against T2, human PD-1 expressed on cells (CHO …) (assay: FMAT inhibition; 100 pM PD-L1-Fc on CHO human PD-1 cells).
Procedure: as §1, with “All” for “For the epitope competition assay”, “reagents and serially diluted VH” for “reagents”, “2” for “a minimum of 1.5”

IC50 | Binder
1.82 nM | B1
2.45 nM | B2
2.08 nM | B3
1.86 nM | B4
2.61 nM | B5
3.56 nM | B6
3.59 nM | B7
2.12 nM | B8
3.32 nM | B9
3 nM | B10

The binders below were run against T3, recombinant human PD-1 Fc chimera (assay: HTRF inhibition; strep-tagged PD-L1 vs PD-1-Fc).
Procedure: All samples and reagents were prepared in HTRF assay buffer containing PBS, 0.1% (w/v) BSA and 0.4M Potassium Fluoride. […] Total binding controls containing periplasmic extract sample buffer and non-specific binding controls containing excess untagged competitor were set up on each plate for data normalisation. Time-resolved fluorescent emission at 620 nm and 665 nm was measured following excitation at 337 nm on the BMG PHERAstar plate reader. Data was expressed as a % of the total binding control (% control) after subtraction of the background signal determined from the non-specific binding control wells.

IC50 | Binder
4.18 nM | B15
3.78 nM | B16
3.13 nM | B11
0.913 nM | B12
5.16 nM | B17
2.66 nM | B13
28.5 nM | B18
17 nM | B14
